Reference: patent publication US20040081647

B1: MMP7 (enzyme, UniProt P09237 95-267, looked up, species assumed)
Matrilysin: YSLFPNSPKWTSKVVTYRIVSYTRDLPHITVDRLVSKALNMWGKEIPLHFRKVVWGTADIMIGFARGAHGDSYPFDGPGNTLAHAFAPGTGLGGDAHFDEDERWTDGSSLGINFLYAATHELGHSLGMGHSSDPNAVMYPTYGNGDPQNFKLSQDDIKGIQKLYGKRSNSRKK
B2: Cathepsin G (enzyme, UniProt P08311 21-244, looked up, species assumed)
Cathepsin G: IIGGRESRPHSRPYMAYLQIQSPAGQSRCGGFLVREDFVLTAAHCWGSNINVTLGAHNIQRRENTQQHITARRAIRHPQYNQRTIQNDIMLLQLSRRVRRNRNVNPVALPRAQEGLRPGTLCTVAGWGRVSMRRGTDTLREVQLRVQRDRQCLRIFGSYDPRRQICVGDRRERKAAFKGDSGGPLLCNNVAHGIVSYGKSSGVPPEVFTRVSSFLPWIRTTMRS
B3: ADAMTS4 (enzyme, UniProt O75173 213-837, looked up, species assumed)
A disintegrin and metalloproteinase with thrombospondin motifs 4: FASLSRFVETLVVADDKMAAFHGAGLKRYLLTVMAAAAKAFKHPSIRNPVSLVVTRLVILGSGEEGPQVGPSAAQTLRSFCAWQRGLNTPEDSDPDHFDTAILFTRQDLCGVSTCDTLGMADVGTVCDPARSCAIVEDDGLQSAFTAAHELGHVFNMLHDNSKPCISLNGPLSTSRHVMAPVMAHVDPEEPWSPCSARFITDFLDNGYGHCLLDKPEAPLHLPVTFPGKDYDADRQCQLTFGPDSRHCPQLPPPCAALWCSGHLNGHAMCQTKHSPWADGTPCGPAQACMGGRCLHMDQLQDFNIPQAGGWGPWGPWGDCSRTCGGGVQFSSRDCTRPVPRNGGKYCEGRRTRFRSCNTEDCPTGSALTFREEQCAAYNHRTDLFKSFPGPMDWVPRYTGVAPQDQCKLTCQAQALGYYYVLEPRVVDGTPCSPDSSSVCVQGRCIHAGCDRIIGSKKKFDKCMVCGGDGSGCSKQSGSFRKFRYGYNNVVTIPAGATHILVRQQGNPGHRSIYLALKLPDGSYALNGEYTLMPSPTDVVLPGAVSLRYSGATAASETLSGHGPLAQPLTLQVLVAGNPQDTRLRYSFFVPRPTPSTPRPTPQDWLHRRAQILEILRRRPWAGRK

Biological target: recombinant human TNFα (RDI) (UniProt P01375)
Sequence (P01375 77-233): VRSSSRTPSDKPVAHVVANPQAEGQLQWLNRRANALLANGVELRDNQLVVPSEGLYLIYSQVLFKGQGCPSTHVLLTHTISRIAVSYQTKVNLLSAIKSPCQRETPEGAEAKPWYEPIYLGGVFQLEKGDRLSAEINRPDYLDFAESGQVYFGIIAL

Protein | log reduction in TNFα activity (L929 cytotoxicity bioassay after overnight digestion) | inactivation of TNFα (L929 cytotoxicity bioassay after overnight digestion)
B1 | MMP7 (1.22) | 
B2 |  | Cathepsin G (under: Proteases that did not inactivate TNF)
B3 |  | ADAMTS4 (under: Proteases that did not inactivate TNF)
